Assay [1] has as its system MCT-induced PH. The assay can be described thus: Echocardiographic assessment in mouse model of MCT-induced PH. It is filed as in vivo, C57BL/6 mice. An excerpt:
PH was induced in C57BL/6 mice (bodyweight: 25-30 g). The animals were obtained from ZET facility (Zentale Experimentelle Tierhaltung) of the University Hospital Jena (UKJ, Jena, Germany). Prior to PH induction, mice were allowed to acclimatize for at least 7 days with ad libitum access to food and water as well as controlled light/dark cycles. 41 animals were investigated divided into the following five experimental groups: • 1) sham induced controls (n=7) • 2) MCT induced PH (n=12) • 3) MCT induced PH+MAC (n=6) • 4) MCT induced PH+F8 IgG (n=8) • 5) MCT induced PH+KSF IgG (n=8) For PH induction, the Monocrotaline (MCT, Carl Roth, Germany) method was used. The sham induced controls were injected with 30 μl NaCl not containing MCT at day 1 (single dose; intraperitoneally, i.p.). […] The other 4 experimental groups were injected with MCT to induce PH (single dose; intraperitoneally, i.p.; 60 mg/kg body weight; volume 30 μl). Animals in the MCT induced PH+MAC group received the drug (Macitentan, Actelion Pharmaceuticals Ltd.) from day 14 to day 28 (once daily; per os; 15 mg/kg body weight). Animals in the MCT induced PH+F8 IgG group received F8 IgG 3 times on day 14, 16 and 18 (intravenously, i.v.; 195 μg/injection; volume 200 μl). Similarly, animals in the MCT induced PH+KSF IgG group received KSF IgG 3 times on day 14, 16 and 18 (intravenously, i.v.; 195 μg/injection; volume 120 μl). Echocardiographic assessment was performed on day 28 using the Vevo 770 Rodent-Ultrasound-System, Visual Sonic, Canada, 17 MHz probe RMV176. Before echocardiography, mice were anesthetized with isoflurane for a duration time of less than 10 minutes (isoflurane-CP, 2.5V %, FiO2 1.0, oxygen per inhalation-flow dosage). Body temperature and respiratory rate were continuously monitored. All surrogate parameters of right ventricular (RV) morphology and function were assessed, among others, RV basal and medial diameters (in mm), RV length (in mm), tricuspid annular plane systolic excursion (TAPSE, in mm), right atrial area (RA area, in mm^2) or main pulmonary artery diameter (MPA, in mm). Statistical analyses were performed using IBM SPSS statistical software, version 28.0 (IBM SPSS Statistics for Windows. Armonk, NY, USA). Data are expressed as mean±standard deviation. Kruskal-Wallis and Mann-Whitney-U test were used to test for significant differences between the different groups. A p-value<0.05 as statistically significant.

The subject of assay [2] is MCT-induced PH. The assay can be described thus: Histological evaluation of lung tissue damage (sum-score) in mouse model of MCT-induced PH. It is filed as in vivo, C57BL/6 mice. An excerpt: PH was induced in C57BL/6 mice (bodyweight: 25-30 g). The animals were obtained from ZET facility (Zentale Experimentelle Tierhaltung) of the University Hospital Jena (UKJ, Jena, Germany). Prior to PH induction, mice were allowed to acclimatize for at least 7 days with ad libitum access to food and water as well as controlled light/dark cycles. 41 animals were investigated divided into the following five experimental groups: • 1) sham induced controls (n=7) • 2) MCT induced PH (n=12) • 3) MCT induced PH+MAC (n=6) • 4) MCT induced PH+F8 IgG (n=8) • 5) MCT induced PH+KSF IgG (n=8) For PH induction, the Monocrotaline (MCT, Carl Roth, Germany) method was used. The sham induced controls were injected with 30 μl NaCl not containing MCT at day 1 (single dose; intraperitoneally, i.p.). […] The other 4 experimental groups were injected with MCT to induce PH (single dose; intraperitoneally, i.p.; 60 mg/kg body weight; volume 30 μl). Animals in the MCT induced PH+MAC group received the drug (Macitentan, Actelion Pharmaceuticals Ltd.) from day 14 to day 28 (once daily; per os; 15 mg/kg body weight). Animals in the MCT induced PH+F8 IgG group received F8 IgG 3 times on day 14, 16 and 18 (intravenously, i.v.; 195 μg/injection; volume 200 μl). Similarly, animals in the MCT induced PH+KSF IgG group received KSF IgG 3 times on day 14, 16 and 18 (intravenously, i.v.; 195 μg/injection; volume 120 μl). Microscopic evaluation to assess histopathological lung tissue damage was performed using H&E as well as Sirius Red stained lung tissue sections according to a defined sum-score (between 0 and 12; maximum score value=highest level of tissue damage) integrating certain histological alterations frequently occurring in PH: percentage of atelectasis area, percentage of emphysema area, degree of media hypertrophy of peribronchial arteries, presence of perivascular cellular edema of peribronchial arteries, and degree of media hypertrophy of small arteries. Statistical analyses were performed using IBM SPSS statistical software, version 28.0 (IBM SPSS Statistics for Windows. Armonk, NY, USA). Data are expressed as mean±standard deviation. Kruskal-Wallis and Mann-Whitney-U test were used to test for significant differences between the different groups. A p-value<0.05 as statistically significant.

Setting [3] is: in contrast to treatment with KSF IgG.

The source of these data is patent publication US20250197485A1, “Anti-ED-A Antibodies for the Treatment of Pulmonary Hypertension” (Universitätsklinikum Jena, priority 2022, published 2025).

B1: F8 IgG: Chimaeric anti-ED-A antibody: human F8 VH/VL fused to murine IgG2a constant regions; heavy chain SEQ ID NO: 11, light chain SEQ ID NO: 12 (antibody)
heavy: EVQLLESGGGLVQPGGSLRLSCAASGFTFSLFTMSWVRQAPGKGLEWVSAISGSGGSTYYADSVKGRFTISRDNSKNTLYLQMNSLRAEDTAVYYCAKSTHLYLFDYWGQGTLVTVSSAKTTAPSVYPLAPVCGDTTGSSVTLGCLVKGYFPEPVTLTWNSGSLSSGVHTFPAVLQSDLYTLSSSVTVTSSTWPSQSITCNVAHPASSTKVDKKIEPRGPTIKPCPPCKCPAPNLLGGPSVFIFPPKIKDVLMISLSPIVTCVVVDVSEDDPDVQISWFVNNVEVHTAQTQTHREDYNSTLRVVSALPIQHQDWMSGKEFKCKVNNKDLPAPIERTISKPKGSVRAPQVYVLPPPEEEMTKKQVTLTCMVTDFMPEDIYVEWTNNGKTELNYKNTEPVLDSDGSYFMYSKLRVEKKNWVERNSYSCSVVHEGLHNHHTTKSFSRTPGK
light: EIVLTQSPGTLSLSPGERATLSCRASQSVSMPFLAWYQQKPGQAPRLLIYGASSRATGIPDRFSGSGSGTDFTLTISRLEPEDFAVYYCQQMRGRPPTFGQGTKVEIKRTDAAPTVSIFPPSSEQLTSGGASVVCFLNNFYPKDINVKWKIDGSERQNGVLNSWTDQDSKDSTYSMSSTLTLTKDEYERHNSYTCEATHKTSTSPIVKSFNRNEC
As for B1, the “RV medial diameter compared to the negative controls” value in assay [1] (day 28, all groups p<0.05, F8 IgG p=0.028) is given as “significantly increased”. For the same molecule, in assay [1] (day 28, p=0.002), the “RV basal diameter compared with the MCT-induced PH group without treatment” value was “significant attenuation”. For the same molecule, in assay [1] (day 28, p=0.003), the “RA area compared with the MCT-induced PH group with MAC treatment” value is on record as “significant reduction” and the “TAPSE compared to the MCT-induced PH group with MAC treatment” value was “significant improvement”. Besides, the “TAPSE compared to the MCT-induced PH group without treatment” value in assay [1] (day 28, p=0.004) was “significant improvement”. In assay [1] (day 28, p=0.005), the “RV basal diameter compared with the MCT-induced PH group with KSF IgG treatment” value was “significant attenuation” and the “RV basal diameter compared with the MCT-induced PH group with MAC treatment” value is given as “significant attenuation”. Also, the “RA area compared with the MCT-induced PH group with KSF IgG treatment” value in assay [1] (day 28, p=0.009) was “significant reduction”. For the same molecule, the “RV medial diameter compared with the MCT-induced PH group with KSF IgG treatment” value in assay [1] (day 28, p=0.010) is listed as “significantly reduced”. The “RV medial diameter compared with the MCT-induced PH group without treatment” value in assay [1] (day 28, p=0.017) was “significantly reduced”. Moreover, the “RA area compared with the MCT-induced PH group without treatment” value in assay [1] (day 28, p=0.021) is on record as “significant reduction”. Moreover, in assay [1] (day 28, p=0.049), the “TAPSE compared to the MCT-induced PH group with KSF IgG treatment” value is “significant improvement”. Moreover, the “echocardiographic signs of right ventricular load and dysfunction” value in assay [1] (setting [3]) was “improvement”. The “histopathological lung tissue damage (sum-score 0 to 12) compared to the MCT-induced PH group without treatment” value in assay [2] (MAC p=0.020, F8 IgG p=0.005, KSF IgG p=0.907) is listed as “significantly reduced”. Moreover, the “histopathological lung tissue damage (sum-score 0 to 12) compared to negative controls” value in assay [2] (all groups p<0.05, F8 IgG p=0.002) was “significantly increased”. The “lung tissue damage at the histopathological level” value in assay [2] (setting [3]) is listed as “attenuation”.
